Results: the supplement of paper PMC10567573
± gives the standard deviation.

Test: protein stability index of a GFP-peptide fusion (GPS, HEK-293T) (PSI 1-6); higher = more stable
Conditions: c terminus: a fixed tail appended
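Further: 24-mer peptide tiles fused after GFP, lentivirally expressed, FACS-sorted into six equal bins by GFP/DsRed ratio, decoded by Illumina sequencing, PSI is the read-weighted mean bin number.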

Row | Sequence | protein stability index (treatment: DMSO) | protein stability index (treatment: MLN4924 1 uM, 8 h)
1 | ITPQGVAMRAGVLADDHLIEVNGE [PDZK1] | 4.72 ± 0.095 | 4.78 ± 0.22
2 | KSVLKSDEEHMEEAITSASFLEQI [FAM189A2] | 4.76 ± 0.31 | 4.85 ± 0.2
3 | NLINQMLTINPAKRITAHEALKHP [CAMK2B] | 2.38 ± 0.32 | 2.23 ± 0.12
4 | TGERPHQCIECGKSFNRHCNLIRH [ZSCAN9] | 3.13 ± 0.17 | 3.35 ± 0.38
5 | YINLLNYMDRFTVAGVLPDIEQFF [SPNS1] | 2.93 ± 0.63 | 2.84 ± 0.64
6 | VYYIFERLCAPLFRNIKQEPFSAR [SOAT1] | 2.5 ± 0.71 | 2.61 ± 0.5
7 | ETAVEGDPSGVSGATVGRKSRRSR [C18orf25] | 5.484 ± 0.04 | 5.5 ± 0.25
8 | ELFQLQTYSLPPFLKAVLRQERVS [CDS1] | 1.99 ± 0.28 | 1.97 ± 0.37
9 | TNALTHTVAMSTLNFCGPNVINHF [OR3A1] | 2.41 ± 0.57 | 2.47 ± 0.27
10 | DYGRKAEELLWRKVYYEVIQLIKT [SMG5] | 2.71 ± 0.57 | –
11 | QPRGGVSSRIEQGEWGGRHPSWPW | 2.99 ± 0.44 | 3 ± 0.68
12 | AGIMLLALVCLLSCLLPSSEAKLY [SPACA3] | 2.94 ± 0.12 | 3.25 ± 0.48
13 | LTNSNLPEEELDFFEILRLFFPVI [CNOT7] | 2.39 ± 0.31 | 2.47 ± 0.41
14 | EKIDKLEQDMERRKADFKAGKALV [ZC3H15] | 4.74 ± 0.3 | 4.67 ± 0.23
15 | LYLRVELSDVQNPAISITENVLHF [HACD3] | 2.82 ± 0.57 | 2.88 ± 0.64
16 | ILALELICSLICLLIYTVKIRRFN [TMEM192] | 3.42 ± 0.29 | 3.2 ± 0.41
17 | GDFEEAFDHLQNRLIATKNPEEIR [TENT5C] | 5.16 ± 0.17 | 5.19 ± 0.21
18 | ALPVPVIVSNFNYFYHRETENEEQ [KCNA4] | 3.54 ± 0.15 | 3.57 ± 0.17
19 | PLESIDHSVTGFLCEPDPVHFSEA [ALG2] | 4.48 ± 0.15 | 4.48 ± 0.025
20 | GAFPPRGPRPVQSVVPEMEESGAQ [CDK4] | 5.22 ± 0.32 | 5.23 ± 0.18
21 | GLGASTAEISARTMQSMFAKNFHV [PTPRD] | 2.38 ± 0.26 | 2.56 ± 0.35
22 | VMFQRRYYKPGLLMMCFILPTLVP [SCD] | 3.51 ± 0.77 | 2.72 ± 0.71

Row | Sequence | protein stability index (treatment: DMSO) | protein stability index (treatment: MLN4924 1 uM, 8 h)
23 | VSLVTAELSKDAQASAAPAAPLPE [SLC29A1] | 4.44 ± 0.18 | 4.47 ± 0.16
24 | EGTSSIVMEIQKQIEKKEKKLHKI [TAF7L] | 4.18 ± 0.044 | 4.76 ± 0.15
25 | MVFPAKRFCLVPSMEGVRWAFSCG [AASDHPPT] | 2.74 ± 0.79 | 2.77 ± 0.72
26 | LKSISAEEILTLFCGAPPVTPIIV [PHTF1] | 3.16 ± 0.29 | 2.62 ± 0.53
27 | VFSYFLATDMISIFEPPVRNSGII [EFHC1] | 3.65 ± 0.91 | 3.14 ± 0.67
28 | GRVEVLKNGEWGTVCDDKWDLVSA [LOXL2] | 4.2 ± 0.32 | 3.56 ± 0.64
29 | SWIKMTKLEYEEIALDLTPVIEEL [FAN1] | 2.83 ± 0.69 | 2.7 ± 0.53
30 | EFKQNIENVSVEMLLRKFAESKGT [FCHO1] | 2.84 ± 0.27 | 3.02 ± 0.32
31 | EDEKLCDPNTRPVGEKNCTGPPCD [ADAMTSL2] | 5.47 ± 0.21 | 5.46 ± 0.26
32 | EYQLFEELGKGAFSVVRRCMKIPT [CAMK2D] | 2.07 ± 0.27 | 2.2 ± 0.54
33 | SDLPTPQAIEPQAIVQQVPAPSRM [SNX8] | 5.21 ± 0.11 | 5.13 ± 0.19
34 | AARVGLLQYSTQVHTEFTLRNFNS [MATN2] | 2.37 ± 0.19 | 2.19 ± 0.28
35 | VKDDDRLTFHRHPVAQSTDGIRGK [SPSB4] | 4.89 ± 0.25 | 4.83 ± 0.23
36 | PSRKYISTKAIPEKYGAVREVILK [ZBED1] | 2.87 ± 0.18 | 2.92 ± 0.34
37 | TERGLSRKHIIEGLKASLERLQLE [KCNAB2] | 2.5 ± 0.32 | 2.22 ± 0.19
38 | CQDCGRAFNQNSSLGRHKRTHTGE [ZNF8] | 3.73 ± 0.44 | 3.42 ± 0.17
39 | PILKVQYHPRDQNKVLVCPMKSAP [RBBP5] | 2.99 ± 0.17 | 3.13 ± 0.14
40 | DEDAGLPRPVQLDETHPYTVTSVS [NEK8] | 5.12 ± 0.19 | 5.23 ± 0.18
41 | AVGNSSGSGQNEESPRKRKKATEA [FBXO28] | 4.95 ± 0.34 | 5.29 ± 0.27
42 | MLESPGAPCRSAQASVSCALEALE [HDAC6] | 3.35 ± 0.58 | 3.38 ± 0.4
43 | WKVRYDTFIVSCKFSPDGKYVVSG [WDR88] | 2.31 ± 0.45 | 2.49 ± 0.14
44 | RIHVGKKYGDIPRGIFVVRGENVV [LSM1] | 2.37 ± 0.17 | 2.24 ± 0.15

Row | Sequence | protein stability index (treatment: DMSO) | protein stability index (treatment: MLN4924 1 uM, 8 h)
45 | RLVSSPCCIVTSTYGWTANMERIM [HSP90AB1] | 2.86 ± 0.68 | 2.35 ± 0.33
46 | EPLVLYNQNLSNRPSFNRTPIPWL [MYOZ1] | 2.39 ± 0.4 | 2.44 ± 0.17
47 | VTLLVRGVCYSESQSSASQPRLSY [CLCN6] | 2.83 ± 0.41 | 2.29 ± 0.6
48 | LGQILVSVAGWSLFSLNVISLTCV [SLC19A2] | 3.3 ± 0.26 | 3.21 ± 0.47
49 | EPQTEHQQESESEIDSVPKTQSEL [MIA2] | 5.46 ± 0.13 | 5.59 ± 0.21
50 | TKILQERAVLGANDPEKNFLTTAI [NSDHL] | 3.53 ± 0.14 | 3.38 ± 0.13
51 | RYLFLDGDSHYEIEIVHISTVQIL [ZFYVE21] | 2.89 ± 0.26 | 2.61 ± 0.4
52 | EMTPEKFSVLMEKLCKKGLAATTS [FANCE] | 2.75 ± 0.57 | 2.88 ± 0.36
53 | YDLDKIIELNGGQPPLTYKRFQTL [CRY1] | 2.69 ± 0.38 | 2.77 ± 0.32
54 | LDKELRAMLREKFPEFCSSPSPPV [INTS3] | 3.22 ± 0.31 | 3.42 ± 0.31
55 | FGAAYVLEQASSHIGNSTQATVRD [ATL3] | 3.06 ± 0.28 | 3.72 ± 0.33
56 | RALQERLGQQQRDMRRDEEGSLCA [FBF1] | 4.95 ± 0.36 | 5.03 ± 0.32
57 | RIQIWFQNRRAKLKRSHRESQFLM [HESX1] | 2.43 ± 0.76 | 2.15 ± 0.67
58 | LDFLPKDVKKEKLSPDIMKDAYVQ [TENT5D] | 3.96 ± 0.14 | 3.78 ± 0.26
59 | TSFIRGPNPSKVLQQLLVLQPEQQ [CDS1] | 3.37 ± 0.19 | 3.3 ± 0.095
60 | EEALKDEEERAQDRIATTDDTTAM [MAGEA10] | 5.7 ± 0.17 | 5.47 ± 0.24
61 | ELQGLPELHEECEGNHPSARKLTA [NET1] | 4.87 ± 0.21 | 4.56 ± 0.41
62 | AVTDLLGRRQRKSEKRRDPPNGPN [WASL] | 4.06 ± 0.14 | 4.31 ± 0.29
63 | MQKRSKAIHSSDEDEDEDDEEDFE [WASL] | 4.58 ± 0.23 | 4.69 ± 0.21
64 | PPTQLEVNLEEIPGEGLLISWAFT [C2CD2L] | 2.75 ± 0.41 | 3.01 ± 0.5
65 | YGRIVEVLLMKDRETNKSRGFAFV [RBMX] | 2.9 ± 0.44 | 2.48 ± 0.59
